From patent US20090258013A1 (Genentech, published 2009)

B3: PVR-Fc fusion protein (Fc fusion, UniProt P15151 21-343, looked up)
chain: WPPPGTGDVVVQAPTQVPGFLGDSVTLPCYLQVPNMEVTHVSQLTWARHGESGSMAVFHQTQGPSYSESKRLEFVAARLGAELRNASLRMFGLRVEDEGNYTCLFVTFPQGSRSVDIWLRVLAKPQNTAEVQKVQLTGEPVPMARCVSTGGRPPAQITWHSDLGGMPNTSQVPGFLSGTVTVTSLWILVPSSQVDGKNVTCKVEHESFEKPQLLTVNLTVYYPPEVSISGYDNNWYLGQNEATLTCDARSNPEPTGYNWSTTMGPLPPFAVAQGAQLLIRPVDKPINTTLICNVTNALGARQAELTVQVKEGPPSEHSGISRN
notes: Found in a library of secreted proteins fused to hexahistidine or Fc tags; also called poliovirus receptor; not shown: Fc tag
B5: TIGIT-Fc (amino acids 1-138 of human TIGIT fused immediately preceding the Fc region of human IgG1) (Fc fusion)
chain: APLASGMMTGTIETTGNISAEKGGSIILQCHLSSTTAQVTQVNWEQQDQLLAICNADLGWHISPSFKDRVAPGPGLGLTLQSLTVNDTGEYFCIYHTYPDGTYTGRIFLEVLESSVAEHGARF
notes: Expressed in CHO cells; Biotinylated for flow cytometry and 125I-iodinated for radioligand assays; also called TIGIT-Fc fusion protein; not shown: Fc region of human IgG1

Columns and labels:
[1] = molecular target: B5; test: Octet biosensor, TIGIT-Fc loaded on an anti-human Fc sensor
Protocol: (§1) The resulting fusion protein was transiently expressed in and purified from CHO cells using standard affinity chromatography techniques. […] Proteins were tested for binding in HBS-P (10 mM Hepes, pH 7.4; 0.15M NaCl; 0.005% Surfactant P20). […] The biosensors were washed in buffer (30 seconds), placed into wells containing 5 μg/mL protein for three minutes, and washed again for 30 seconds. The sensors were reloaded and washed after every two binding cycles.

PVR-Fc fusion protein [2] = molecular target: B3; test: competition radioligand binding, 125I Fc-ligand on receptor-expressing CHO cells, Scatchard
Protocol: (§2) Plasmids were transfected into CHO cells using Lipofectamine LTX (Invitrogen). Expression of gD-tagged proteins was verified by flow cytometry using the Alexa-647 anti-gD conjugate. Stably-transfected cell lines were sorted twice by FACS for purity before use. Fc-fusion proteins constructed as described above were iodinated (¹²⁵I) using the Iodogen method. Binding studies were carried out on stable transfectants in triplicate with 0.1-3 nM iodinated ligand. […] Cell suspensions were harvested onto nitrocellulose membranes (Millipore) and washed extensively.
(§3) Receptors were expressed on CHO cells, and all ligands were -Fc constructs. MFI was determined by flow cytometry with biotinylated Fc-ligands, after gating on receptor-positive cells. Binding affinity (Kd) was determined by competition radioligand binding assay. Kd is indicated (nM) and is the average value from at least 3 independent assays, except where indicated (*).

[3] = molecular target: B5; test: flow cytometry, biotinylated ligand + streptavidin-PE vs receptor expression on CHO transfectants
Text: (§4) Fc fusion proteins were biotinylated via amine coupling using NHS-PEO4-Biotin (Pierce) in PBS. Binding of biotin-ligands was detected using phycoerythrin-conjugated streptavidin (Caltag). Mouse monoclonal antibody to gD tag (Genentech) was conjugated to AlexaFluor 647 (Invitrogen). Antibodies were conjugated to appropriate fluor labels using standard techniques. Cells were stained per the manufacturer's instructions. Prior to staining, cells were blocked with appropriate sera or purified IgG. Acquisition was performed on a FACSCalibur (BD Biosciences) and analyzed with JoFlo software (Tree Star, Inc.). Forward and side scatter gated viable cells.

PVR-Fc fusion protein [4] = molecular target: B3; test: competition radioligand binding on CHO cells; upper end tied by Table 6 to PVR-Fc on CHO-TIGIT; PVR-Fc ligand on CHO-TIGIT (upper end of the range)
Protocol: as §2
(§5) Non-specific binding was determined using 2000-fold excess cold ligand and subtracted from total binding.

[5] = molecular target: T1, gD-tagged full-length PVR expressed on stably transfected CHO cells (UniProt P15151 21-417, limits assumed); test: flow cytometry, biotinylated ligand + streptavidin-PE vs receptor expression on CHO transfectants
T1 construct: whole, on cells; also called CHO-PVR; PVR-expressing CHO cells
Text: as §4

[6] = molecular target: T2, gD-tagged full-length PVRL2 expressed on stably transfected CHO cells (UniProt Q92692 32-538, limits assumed); test: as above
T2 construct: whole, on cells
Text: as §4

[7] = molecular target: T1, gD-tagged full-length PVR expressed on …; test: flow cytometry, biotinylated Fc-ligand on receptor-expressing CHO cells (+++ MFI = 1000-4999)
Text: as §4, §3

ESAM (library protein) = molecular target: T3, ESAM (library protein) (UniProt Q96AP7 30-248, limits assumed); test: Octet biosensor, TIGIT-Fc loaded on an anti-human Fc sensor
T3 sequence (looked up): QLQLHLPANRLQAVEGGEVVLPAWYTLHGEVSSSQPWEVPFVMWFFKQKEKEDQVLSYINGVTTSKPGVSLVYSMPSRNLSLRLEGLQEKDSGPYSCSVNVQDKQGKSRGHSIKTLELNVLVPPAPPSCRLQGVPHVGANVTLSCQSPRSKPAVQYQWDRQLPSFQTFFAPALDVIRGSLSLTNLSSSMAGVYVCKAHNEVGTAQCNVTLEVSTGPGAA
Protocol: as §1

TEK (library protein) = TEK (library protein) (UniProt Q02763 23-748, limits assumed); test: as above
TEK (library protein), sequence (Q02763 23-748 limits assumed): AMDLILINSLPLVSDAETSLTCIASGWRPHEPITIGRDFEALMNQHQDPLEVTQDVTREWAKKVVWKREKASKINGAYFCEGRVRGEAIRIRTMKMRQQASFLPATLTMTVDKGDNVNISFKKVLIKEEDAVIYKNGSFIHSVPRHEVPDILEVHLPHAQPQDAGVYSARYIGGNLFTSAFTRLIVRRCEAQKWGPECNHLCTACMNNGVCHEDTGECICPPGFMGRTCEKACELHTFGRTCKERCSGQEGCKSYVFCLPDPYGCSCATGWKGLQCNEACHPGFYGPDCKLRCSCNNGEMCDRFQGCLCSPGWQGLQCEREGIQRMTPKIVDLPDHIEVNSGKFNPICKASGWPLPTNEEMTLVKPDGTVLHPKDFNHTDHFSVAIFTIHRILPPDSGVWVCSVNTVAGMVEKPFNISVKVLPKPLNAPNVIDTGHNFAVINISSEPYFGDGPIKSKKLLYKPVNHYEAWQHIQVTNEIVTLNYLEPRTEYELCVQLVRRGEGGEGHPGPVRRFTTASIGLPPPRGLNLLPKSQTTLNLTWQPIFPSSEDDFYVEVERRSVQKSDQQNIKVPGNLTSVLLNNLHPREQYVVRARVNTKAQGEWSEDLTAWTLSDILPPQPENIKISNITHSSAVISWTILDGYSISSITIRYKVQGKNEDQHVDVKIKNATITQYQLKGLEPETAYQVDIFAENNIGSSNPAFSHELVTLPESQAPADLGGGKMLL
Protocol: as §1

[8] = molecular target: T4, TNFRSF10C (library protein) (UniProt O14798 26-236, limits assumed); test: as above
T4 sequence (looked up): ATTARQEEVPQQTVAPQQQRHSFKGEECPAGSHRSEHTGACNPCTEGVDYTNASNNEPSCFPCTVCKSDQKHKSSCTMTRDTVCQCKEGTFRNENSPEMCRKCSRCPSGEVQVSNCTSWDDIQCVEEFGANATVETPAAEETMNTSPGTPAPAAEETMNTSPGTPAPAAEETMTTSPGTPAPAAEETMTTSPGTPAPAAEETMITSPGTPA
Protocol: as §1

IGFBP4 (library protein) = molecular target: T5, IGFBP4 (library protein) (UniProt P22692 22-258); test: as above
T5 sequence (looked up): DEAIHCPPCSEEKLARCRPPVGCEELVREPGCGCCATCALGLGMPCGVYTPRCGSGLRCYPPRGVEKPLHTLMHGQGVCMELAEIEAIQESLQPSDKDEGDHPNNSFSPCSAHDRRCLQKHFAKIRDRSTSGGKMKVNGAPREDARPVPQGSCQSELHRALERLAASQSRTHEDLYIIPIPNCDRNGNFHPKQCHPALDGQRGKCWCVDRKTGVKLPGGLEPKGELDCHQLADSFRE
Protocol: as §1

IL-19 (library protein) = molecular target: T6, IL-19 (library protein) (UniProt Q9UHD0 25-177); test: as above
T6 sequence (looked up): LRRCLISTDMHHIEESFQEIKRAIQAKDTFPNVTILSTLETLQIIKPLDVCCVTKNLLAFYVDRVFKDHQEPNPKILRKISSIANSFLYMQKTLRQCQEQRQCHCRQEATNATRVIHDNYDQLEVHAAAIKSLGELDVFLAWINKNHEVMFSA
Protocol: as §1

[9] = molecular target: T7, gD-tagged full-length CD226 expressed on stably transfected CHO cells (UniProt Q15762 19-336, limits assumed); test: flow cytometry, biotinylated ligand + streptavidin-PE vs receptor expression on CHO transfectants
T7 construct: whole, on cells; also called CHO-CD226
Text: as §4

[10] = molecular target: T8, gD-tagged full-length CD96 expressed on stably transfected CHO cells (UniProt P40200 22-585, limits assumed); test: as above
T8 construct: whole, on cells; also called CHO-CD96; CD96-expressing CHO cells
Text: as §4

[11] = molecular target: T1, gD-tagged full-length PVR expressed on …; test: radioligand binding, iodinated TIGIT-Fc displaced by unlabeled TIGIT-Fc on PVR-expressing CHO cells
Protocol: as §2, §5

[12] = molecular target: gD-tagged full-length PVR expressed on stably transfected CHO cells (UniProt P15151); test: flow cytometry, biotinylated Fc-ligand on receptor-expressing CHO cells (+++ MFI = 1000-4999)

B1: OTOR (library protein) (other, UniProt Q9NRC9 18-128, looked up, not shown: a dimerising Fc or GST)
chain: VHGIFMDRLASKKLCADDECVYTISLASAQEDYNAPDCRFINVKKGQQIYVYSKLVKENGAGEFWAGSVYGDGQDEMGVVGYFPRNLVKEQRVYQEATKEVPTTDIDFFCE
binding result [1]: no binding

B2: gD-tagged full-length TIGIT expressed on stably transfected CHO cells (receptor)
chain: KYALADASLKMADPNRFRGKDLPVLMMTGTIETTGNISAEKGGSIILQCHLSSTTAQVTQVNWEQQDQLLAICNADLGWHISPSFKDRVAPGPGLGLTLQSLTVNDTGEYFCIYHTYPDGTYTGRIFLEVLESSVAEHGARFQIPLLGAMAATLVVICTAVIVVVALTRKKKALRIHSVEGDLRRKSAGQEEWSPSAPSPPGSCVQAEAAPAGLCGEQRGEDCAELHDYFNVLSYRSLGNCSFFTETG
notes: also called CHO-TIGIT; CHO cells expressing TIGIT
Kd (PVR-Fc fusion protein [2]): 3.15 nM | binding result [3]: no binding | Kd (PVR-Fc fusion protein [4]): 1 to 3 nM

B3
binding result [5]: no binding | binding result [6]: no binding

B4: CD226-Fc (amino acids 1-259 of CD226 fused to the Fc region of human IgG1) (Fc fusion, UniProt Q15762 19-259, looked up)
chain: EEVLWHTSVPFAENMSLECVYPSMGILTQVEWFKIGTQQDSIAIFSPTHGMVIRKPYAERVYFLNSTMASNNMTLFFRNASEDDVGYYSCSLYTYPQGTWQKVIQVVQSDSFEAAVPSNSHIVSEPGKNVTLTCQPQMTWPVQAVRWEKIQPRQIDLLTYCNLVHGRNFTSKFPRQIVSNCSHGRWSVIVIPDVTVSDSGLYRCYLQASAGENETFVMRLTVAEGKTDNQYTLFVAGGTVL
notes: range 1-259; also called DNAM; not shown: Fc region of human IgG1
MFI [7]: 1000 to 5000 mfi

B5
binding result (ESAM (library protein)): no binding | binding result (TEK (library protein)): no binding | binding result [8]: no binding | binding result (IGFBP4 (library protein)): no binding | binding result (IL-19 (library protein)): no binding | MFI [7]: 1000 to 5000 mfi | binding result [9]: no binding | binding result [10]: no binding | IC50 (read off the curve) [11]: ~4 nM

B6: CD96-Fc (amino acids 1-500 of CD96 fused to the Fc region of human IgG1) (Fc fusion, UniProt P40200 22-500, looked up, not shown: a dimerising Fc or GST)
chain: VWEKTVNTEENVYATLGSDVNLTCQTQTVGFFVQMQWSKVTNKIDLIAVYHPQYGFYCAYGRPCESLVTFTETPENGSKWTLHLRNMSCSVSGRYECMLVLYPEGIQTKIYNLLIQTHVTADEWNSNHTIEIEINQTLEIPCFQNSSSKISSEFTYAWSVENSSTDSWVLLSKGIKEDNGTQETLISQNHLISNSTLLKDRVKLGTDYRLHLSPVQIFDDGRKFSCHIRVGPNKILRSSTTVKVFAKPEIPVIVENNSTDVLVERRFTCLLKNVFPKANITWFIDGSFLHDEKEGIYITNEERKGKDGFLELKSVLTRVHSNKPAQSDNLTIWCMALSPVPGNKVWNISSEKITFLLGSEISSTDPPLSVTESTLDTQPSPASSVSPARYPATSSVTLVDVSALRPNTTPQPSNSSMTTRGFNYPWTSSGTDTKKSVSRIPSETYSSSPSGAGSTLHDNVFTSTARAFSEVPTTANGST
MFI [12]: 1000 to 5000 mfi
